# Source: article PMC8608356
# What was measured:
# Assay in all cases: BLI
# Conditions in all cases: biotinylated; BLI (BLItz): 20 mM Tris-HCl pH 7.4, 80 mM NaCl, 20 mM KCl, 1 mM DTT, room temperature; […] (Triton X-100, Tween-20)
# [1] = system: CCHFV N protein stalk domain (Crimean Congo Hemorrhagic fever virus strain 10200?)
# [2] = system: CCHFV nucleocapsid (N) protein, wild type (Crimean Congo Hemorrhagic fever virus strain 10200)
# [3] = system: CCHFV nucleocapsid (N) protein, wild type (Crimean Congo Hemorrhagic fever virus strain 10200); remark: listed apart in the source
# [4] = system: CCHFV N protein stalk domain (Crimean Congo Hemorrhagic fever virus strain 10200?); remark: listed apart in the source
# [5] = system: CCHFV nucleocapsid (N) protein, wild type (Crimean Congo Hemorrhagic fever virus strain 10200); remark: listed apart in the source
substance,measurement,setting,value
CCHFV S-segment mRNA 5' UTR,Kd,[1],36.7 nM
same,Kd,[2],37.3 nM
same,Kd,[3],67 nM
same,Kd,[4],54 nM
same,Kd,[5],54 nM
